Measured values taken from patent publication US20200148765A1 (OSAKA UNIVERSITY, published 2020).

T1: crab-eating macaque CLDN-5 protein (crab-eating macaque, UniProt O00501 1-218 (human entry))
T1 construct: Expressed on cells by retrovirus; also called cCLDN-5; MDCKII/cCLDN-5
T1 chain: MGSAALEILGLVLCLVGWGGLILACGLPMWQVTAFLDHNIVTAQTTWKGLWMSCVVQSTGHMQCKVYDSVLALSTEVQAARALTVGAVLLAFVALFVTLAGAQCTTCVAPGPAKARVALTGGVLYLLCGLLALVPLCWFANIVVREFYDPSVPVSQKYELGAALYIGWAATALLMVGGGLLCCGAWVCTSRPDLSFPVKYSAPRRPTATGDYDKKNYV

T2: wild-type human CLDN-5 protein (human, UniProt O00501 1-218)
T2 construct: Four-transmembrane tight junction protein expressed by retrovirus on HT-1080 (or MDCKII) cells; also called hCLDN-5; human Claudin-5 protein
T2 sequence: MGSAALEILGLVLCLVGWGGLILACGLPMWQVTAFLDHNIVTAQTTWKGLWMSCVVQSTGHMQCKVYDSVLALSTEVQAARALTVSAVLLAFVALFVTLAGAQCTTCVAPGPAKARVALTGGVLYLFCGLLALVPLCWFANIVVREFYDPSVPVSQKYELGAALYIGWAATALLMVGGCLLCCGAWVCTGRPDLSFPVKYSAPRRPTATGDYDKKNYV

T3: mouse CLDN-5 protein (mouse, UniProt O54942 1-218)
T3 construct: Expressed on cells by retrovirus; also called mCLDN-5; MDCKII/mCLDN-5
T3 sequence: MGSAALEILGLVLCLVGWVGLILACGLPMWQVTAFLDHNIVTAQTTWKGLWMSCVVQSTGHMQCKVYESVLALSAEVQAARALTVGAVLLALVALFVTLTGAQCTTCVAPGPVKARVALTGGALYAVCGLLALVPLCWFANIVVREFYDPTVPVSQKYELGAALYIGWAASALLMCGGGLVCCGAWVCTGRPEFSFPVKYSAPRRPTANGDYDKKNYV

T4: mCLDN-1 protein (mouse, UniProt O88551 1-211)
T4 construct: Expressed on cells by retrovirus; also called mouse Claudin-1 protein
T4 sequence: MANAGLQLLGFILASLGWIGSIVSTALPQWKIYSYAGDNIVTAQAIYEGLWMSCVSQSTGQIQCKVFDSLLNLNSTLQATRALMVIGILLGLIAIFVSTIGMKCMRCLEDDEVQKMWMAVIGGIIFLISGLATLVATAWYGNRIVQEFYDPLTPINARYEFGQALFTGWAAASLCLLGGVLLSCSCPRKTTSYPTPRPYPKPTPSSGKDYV

T5: mCLDN-2 protein (mouse, UniProt O88552 1-230)
T5 construct: Expressed on cells by retrovirus; also called mouse Claudin-2 protein
T5 sequence: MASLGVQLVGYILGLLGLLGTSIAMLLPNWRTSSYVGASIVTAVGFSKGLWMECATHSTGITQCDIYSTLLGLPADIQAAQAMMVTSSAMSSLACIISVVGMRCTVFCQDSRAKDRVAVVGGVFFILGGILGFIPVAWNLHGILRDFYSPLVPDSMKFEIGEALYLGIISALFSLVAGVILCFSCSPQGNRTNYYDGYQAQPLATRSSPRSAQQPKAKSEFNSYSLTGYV

T6: mCLDN-3 protein (mouse, UniProt Q9Z0G9 1-219)
T6 construct: Expressed on cells by retrovirus; also called mouse Claudin-3 protein
T6 sequence: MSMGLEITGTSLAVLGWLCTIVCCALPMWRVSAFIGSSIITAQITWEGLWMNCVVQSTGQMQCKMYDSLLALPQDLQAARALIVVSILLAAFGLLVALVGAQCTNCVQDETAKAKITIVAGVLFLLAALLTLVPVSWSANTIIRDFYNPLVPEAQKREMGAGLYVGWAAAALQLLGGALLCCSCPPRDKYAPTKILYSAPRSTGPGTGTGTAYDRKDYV


Columns and labels:
[1] = molecular target: T1, crab-eating macaque CLDN-5 protein; experiment: FACS on CLDN-5-expressing cells, antibody 5 µg/mL
Description: (§1) The obtained CLDN-expressing cells were seeded in a 10 cm dish, and on the next day, the cells were collected. The primary antibodies (100 μL) were added to the obtained 1.0×10⁵ cells and allowed to react for 1 hour at 4° C. At this time, a mixed solution of a C-CPE mutant (C-CPEmt) and a mouse anti-His tag antibody (Abeam) used in Non-Patent Literature 3 was used as positive control. The cells were washed three times with 0.2% BSA-PBS, then mixed with 100 μL of a secondary antibody solution (FITC conjugated goat anti-mouse IgG or anti-rat IgG (Jackson Immune Research, 115-095-003 or 112-095-003) 400x diluted with 1% BSA-PBS, and allowed to react for 1 hour at 4° C. The cells were washed with 0.2% BSA-TBS and then analyzed using FACS caliber (BD Bioscience).
In the same manner as in Example 1-2), a DNA fragment consisting of a cCLDN-5 protein (SEQ ID NO: 28)-encoding sequence or an mCLDN-5 protein (SEQ ID NO: 29)-encoding sequence was inserted into a pCX4pur vector, thereby obtaining vectors for preparing a retrovirus. By using these vectors with the vector for preparing a retrovirus prepared in Example 1-2), various animal species CLDN-5 protein-expressing cells were prepared. By using these cells and the antibodies (antibody concentration: 5 μg/mL, as primary antibody), FACS assay was performed in the same manner as in 3-1).

[2] = molecular target: T2, wild-type human CLDN-5 protein; experiment: FACS, hybridoma supernatant on CLDN-expressing cells
Text: (§2) By the insertion of a DNA fragment consisting of an hCLDN-1 protein (SEQ ID NO: 30)-encoding sequence, an hCLDN-2 protein (SEQ ID NO: 31)-encoding sequence, an hCLDN-3 protein (SEQ ID NO 32)-encoding sequence, an hCLDN-4 protein (SEQ ID NO: 33)-encoding sequence, an hCLDN-6 protein (SEQ ID NO: 34)-encoding sequence, an hCLDN-7 protein (SEQ ID NO: 35)-encoding sequence, an mCLDN-1 protein (SEQ ID NO: 37)-encoding sequence, an mCLDN-2 protein (SEQ ID NO: 38)-encoding sequence, an mCLDN-3 protein (SEQ ID NO: 39)—encoding sequence, or an mCLDN-5 protein (SEQ ID NO: 29)-encoding sequence, vectors for preparing a retrovirus were obtained. By using these vectors and the vector for preparing a retrovirus prepared in Example 1-2), various CLDN protein-expressing cells were prepared. By using these cells and a culture supernatant of hybridomas producing antibodies as primary antibodies, FACS assay was performed by the following method.
as §1

mouse CLDN-5 protein = molecular target: T3, mouse CLDN-5 protein; experiment: as above
Text: as §2, §1

mCLDN-1 protein = molecular target: T4, mCLDN-1 protein; experiment: as above
Text: as §2, §1

mCLDN-2 protein = molecular target: T5, mCLDN-2 protein; experiment: as above
Text: as §2, §1

mCLDN-3 protein = molecular target: T6, mCLDN-3 protein; experiment: as above
Text: as §2, §1

Binder	binding result [1]	binding result [2]	binding result (mouse CLDN-5 protein)	binding result (mCLDN-1 protein)	binding result (mCLDN-2 protein)	binding result (mCLDN-3 protein)
rat anti-CLDN-5 antibody R20 (antibody, rat IgG2a, V domains shown, Hybridoma monoclonal; also called antibody L) VH: EVQLVESGGGLVQPGRSMKLSCAVSGFTFSDYYMAWVRQAPKKGLEWVASISYEGRNTYYGDSVKGRFTISRDNAKNTLYLQMNSLRSEDTATYYCARHPRRYFDFWGPGTMVTVSS VL: DIVMTQSPSSLAVSAGETVTINCKSSQSLLFSGDQENHLAWYQQKAGQSAKLLIYWASTRESGVPDRFIGSGSGADFTLTISSMQAEDRATYYCQQNYDIPYTFGAGTKLEL	binds	binds	no binding	no binding	no binding	no binding
rat anti-CLDN-5 antibody R8 (antibody, rat IgG2b, V domains shown, Hybridoma monoclonal; also called antibody H) VH: VKVVESGGGLVQPGRSMKLSCAASGFTFSDYFMAWVRQSPKKGLEWVASINYGGSRTYYEDSVKGRFTISRDNAKSTLYLQMNSLRSEDTATYYCARHPHRLFDYWGQGVMVTVSS VL: DIVMTQSPSFLAVSVGETVTINCKSSQSFLSSGNQENYLAWYQQKPGQSPKLLIHLASTRESGVPDRFIGSGSGTDFTLTISSMQAEDVAIYYCQQHYDIPYTFGAGTKLEL	binds	binds	no binding	no binding	no binding	no binding
rat anti-CLDN-5 antibody R28 (antibody, rat IgG2a, V domains shown, Hybridoma monoclonal; also called antibody M) VH: EVQLVESGGGLVQPGRSLKLSCAASGFTFSDYFMAWVRQAPKKGLEWVASINYEGSRTYYGDSVKDRFTISRDNTKTTLYLQMTSLRSEDTATYYCARHPRRYFDFWGQGVMVTVSS VL: DIVMTQSPSSLAVSAGETVTINCKSSRSLFSSGYQENYLAWYQQKPGQSPKMLIYLASTRESGVPDRFIGSGSGTDFTLTINTLQAEDLAIYYCQQHYDIPYTFGAGTKLEL	binds	binds	no binding	no binding	no binding	no binding

Other lines, results leading:

binding result [1]	binding result [2]	binding result (mouse CLDN-5 protein)	binding result (mCLDN-1 protein)	binding result (mCLDN-2 protein)	binding result (mCLDN-3 protein)	Binder
binds	binds	no binding	no binding	no binding	no binding	rat anti-CLDN-5 antibody R11 (antibody, rat IgG2b, V domains shown, Hybridoma monoclonal; also called antibody J) VH: EVQLVESGGGLVQPGRSRKLSCAASGFTFNNYGMAWVRQAPTKGLEWVASITNSGYTTYYRDSVKGRFTISRDNAKNALYLQMDSLRSEDTATYYCTTGGYGGYFPLFDYWGHGVMVTVSS VL: DVVMTQTPVSLSVSLGGQTSISCRSSQSLFHSDGNTYLYWYLRKPGQSPQLLIYKVSNRFSGVPDRFSGSGSGTDFTLKISRVEPEDLGLYYCYQGTHYPPTFGSGTKLEI
binds	binds	no binding	no binding	no binding	no binding	mouse anti-CLDN-5 antibody M29 (antibody, mouse IgG3, V domains shown, Hybridoma monoclonal; also called antibody D) VH: EVQLVESGGGLVQPKGSLKLSCAASGFTFNIYAMHWVRQAPGKGLEWVARIRSKSSNYATYYVDSVKDRFIISRDDSQSMLYLQVNNLKTEDTAMYYCVREGNWDCFDYWGQGTTLTVSS VL: DIVMSQSPSSLPVSVGQKVTMTCKSSQSLLYTSNQKNYLAWYQQKPGQSPKLLIYWASTRESGVPDRFTGSGSGTDFTLTISSVKAEDLAIYYCQQYYRYHTFGGGTRLEIK
